Measured values published in patent US20190185531A1 (published 2019).

T1: human Bfl-1 (c-myc-tagged) (human, UniProt Q16548 1-151)
T1 chain: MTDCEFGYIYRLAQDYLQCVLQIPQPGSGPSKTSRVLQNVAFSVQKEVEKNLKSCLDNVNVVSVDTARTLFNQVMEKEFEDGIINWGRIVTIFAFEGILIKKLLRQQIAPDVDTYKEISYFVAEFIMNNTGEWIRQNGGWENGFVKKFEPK

T2: Bcl-w (c-myc-tagged) (human, UniProt Q92843 1-164)
T2 chain: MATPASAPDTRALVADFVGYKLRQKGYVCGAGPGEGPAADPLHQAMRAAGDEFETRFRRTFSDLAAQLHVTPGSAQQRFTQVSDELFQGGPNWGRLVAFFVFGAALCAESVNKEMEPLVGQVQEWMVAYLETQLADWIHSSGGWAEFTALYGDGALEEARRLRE

T3: human Mcl-1 (c-myc-tagged) (human, UniProt Q07820 172-327)
T3 chain: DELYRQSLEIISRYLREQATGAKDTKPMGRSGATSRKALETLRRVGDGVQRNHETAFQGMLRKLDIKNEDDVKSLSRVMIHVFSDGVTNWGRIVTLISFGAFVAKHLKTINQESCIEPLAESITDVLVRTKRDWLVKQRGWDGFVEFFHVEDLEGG


Legend:
[1] = biological target: T1, human Bfl-1 (c-myc-tagged); test: fluorescence anisotropy competition
Bcl-xL (c-myc-tagged) = Bcl-xL (c-myc-tagged) (human, UniProt Q07817 1-209); test: fluorescence anisotropy competition
Bcl-w (c-myc-tagged) = biological target: T2, Bcl-w (c-myc-tagged); test: fluorescence anisotropy competition
[2] = biological target: T1, human Bfl-1 (c-myc-tagged); test: fluorescence anisotropy competition
[3] = biological target: T3, human Mcl-1 (c-myc-tagged); test: fluorescence anisotropy competition
Bcl-2 (c-myc-tagged) = Bcl-2 (c-myc-tagged) (human, UniProt P10415 1-217); test: fluorescence anisotropy competition
[4] = biological target: T1, human Bfl-1 (c-myc-tagged); test: anisotropy

Bcl-2 (c-myc-tagged), sequence (P10415 1-217): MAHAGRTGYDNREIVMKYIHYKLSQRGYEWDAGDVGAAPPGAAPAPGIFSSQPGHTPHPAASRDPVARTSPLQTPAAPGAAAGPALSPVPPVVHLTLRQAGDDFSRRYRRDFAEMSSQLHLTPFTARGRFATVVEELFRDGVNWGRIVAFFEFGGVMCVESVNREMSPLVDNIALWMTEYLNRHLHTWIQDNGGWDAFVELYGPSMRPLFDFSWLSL
Bcl-xL (c-myc-tagged), sequence (Q07817 1-209): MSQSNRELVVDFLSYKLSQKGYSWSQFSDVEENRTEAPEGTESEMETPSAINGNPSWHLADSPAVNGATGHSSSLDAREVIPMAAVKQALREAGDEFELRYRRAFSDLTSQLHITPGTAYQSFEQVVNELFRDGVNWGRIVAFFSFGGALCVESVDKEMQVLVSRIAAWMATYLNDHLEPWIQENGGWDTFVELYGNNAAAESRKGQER

| Ki [1] [nM] | Ki (Bcl-xL (c-myc-tagged)) [nM] | Ki (Bcl-w (c-myc-tagged)) [nM] | Ki [2] [nM] | Ki [3] [nM] | Ki (Bcl-2 (c-myc-tagged)) [nM] | Ki [4] [nM] | Binder |
| --- | --- | --- | --- | --- | --- | --- | --- |
| 2.1 | – | – | – | – | – | – | Ac-QWVREIAAQLRRMADDLNAQYER-NH2 [PUMA/FS2 chimeric peptide: PUMA with larger residues at positions A2 and E2] |
| 600 | – | – | – | – | – | – | Ac-QWAREIGAGLRRAADDVNAQVER-NH2 [PUMA/FS2 chimeric peptide: PUMA with smaller residues at positions G2, D3, A4 and E4] |
| – | 105 | 828 | 2.1 | 711 | 2360 | – | Ac-QWIREIAAGLRRFADILNAQVER-NH2 [FS3] |
| 21 | 7340 | 7210 | 24.8 | 2580 | 2450 | – | Ac-QWVREIAAGLRRAADDVNAQVER-NH2 [FS2] |
| – | 2720 | 8880 | – | > 5000 | 6940 | 16.4 | Ac-QWVREIAAGLRLAADNVNAQLER-NH2 [FS1] |
| 4.8 | – | 6 | 5.1 | 2.7 | – | – | Ac-QWAREIGAQLRRMADDLNAQYER-NH2 [Puma BH3 peptide (23 residues)] |
